Reference: patent publication US10227575B2, “Multi-domain enzymes having cutinase activity, compositions comprising same and uses thereof” (OZYMES, priority 2015, dated 2019)
Where two headings read alike, the source gives them in different places.

How the values were obtained:
[1] = Thermostability of purified enzymes; format: physicochemical
Experimental: Enzyme thermostability was studied over a temperature range of 50-95° C. using the purified enzyme preparations. Aliquots were incubated at the desired temperature for 5, 10, 30, 60, and 120 minutes, chilled on ice, and assayed for remaining activity towards p-NP-palmitate (pNPP) at room temperature.

[2] = Polymer binding test, cellulose
Experimental: Different polymers (cellulose, PLA, PCL, and PHB) were tested to evaluate the ability of KrCUT and KrCUT189 to bind these materials. Binding assays for PCL and PLA could not be performed since both polymers were degraded by the enzymes.

[3] = Adsorption assay on PHB granules (Langmuir isotherm); format: binding
Experimental: Purified KrCUT of concentrations ranging from 0.16 to 3.2 mg/mL were mixed with 25 mg PHB in 50 mM sodium phosphate (pH 8.0) in a total volume of 1 mL and mixed by gently shaking for 3 h. The PHB polymer was removed by centrifugation and the concentration of protein in the supernatant was determined by the BCA method. The concentration of bound protein at a particular concentration of cutinase was calculated as the difference between a control without added PHB and free cutinase after incubation with PHB.
Adsorption assays were carried out following procedures of Kasuya et al. (1999). Purified KrCUT and KrCUT189 at concentrations ranging from 0.16 to 3.2 mg/mL were added to a suspension of 25 mg PHB in 50 mM sodium phosphate (pH 8.0) in a total volume 1 mL. The mixture was incubated at room temperature with gentle shaking for at least 3 h. The PHB polymer was removed by centrifugation and the concentration of protein in the supernatant was determined by the BCA method. The concentration of bound protein at a particular concentration of cutinase was calculated as the difference between a control without added PHB and free cutinase after incubation with PHB. An isotherm of [Bound](mg/mg PHB) vs [Free] (mM) was generated and binding parameters were determined by non-linear regression using the Langmuir equation:
[formula] where [E]=Ead+[E]e, is the concentration of the protein added; Emax is the maximum amount of protein adsorbed on the polyester granules, and K is the adsorption equilibrium constant of the protein.

[4] = format: biochemical, Petromyces albertensis; details: for Residual ochratoxin A (%): 5 ppm Ochratoxin A, 37° C., relative to incubation without enzyme; for Ochratoxin A Degradation per U and h: per 1 U of enzyme (pNP standard test) and hour at 37° C.; for Ochratoxin A degraded: after 4 hours
Experimental: The enzymes purified in Example 18 were tested for their ability to degrade the mycotoxin Ochratoxin A. In general, the mycotoxin was incubated with different concentrations of the enzyme, and the remaining mycotoxin concentration, as well the respective degradation products, were monitored by LC-MS over time (where possible/applicable).
Reactions were performed in 1 mL volumes in glass HPLC vials comprising the mycotoxin to be analyzed and the enzyme to be tested. For Ochratoxin A (Petromyces albertensis, 01877 Sigma), 50 μL of a 100 ppm stock solution in methanol (final concentration of 5 ppm) was added to 910 μL of distilled water and 40 μL of the enzyme to be tested. In control reactions, the volume of enzyme was substituted with distilled water. The reactions were incubated in an Eppendorf thermomixer at 37° C. with shaking at 750 rpm. 100 μL samples were withdrawn at 1, 4 and 24 h for chromatographic analysis.
Mycotoxin analysis was carried out using a Shimadzu LCMS-2020 equipped with a UV/vis detector. Chromatographic separation of 10 μL injected sample was carried out at 30° C. on a Kinetex 2.6 μm XB-C18 column 100 Å (50×2.1 mm) using a binary gradient. For Ochratoxin A, eluent A consisted of water and eluent B consisted of acetonitrile and the UV detection wavelength was 360 nm.
The five enzymes tested were screened for their ability to degrade 5 ppm (5,000 ppb) Ochratoxin A at 37° C.

[5] = Esterase assay, specific activity of KrCUT versus YebF-KrCUT; format: biochemical; details: pNP-palmitate as substrate
Experimental: (§1) Esterase activity was determined by monitoring the formation of pNP at 410 nm from various pNP-esters using a Beckman UV spectrophotometer (model DU 640) (21). Substrates were dissolved in isopropanol and were added to 50 mM sodium phosphate buffer pH 8.0 to give 10% (v/v) total isopropanol concentration in a 1 mL reaction volume. pNP-butyrate was used at a final concentration of 1.2 mM. For pNP-caprylate, myristate and palmitate, the final concentration ranged from 0.1 to 0.5 mM. The reaction (1 mL) was started by adding an appropriate amount of enzyme. One enzyme unit (U) is defined as the amount of enzyme that produced 1 μmol of product (pNP) per min; specific activity is expressed as U/mg protein. A molar extinction coefficient of 15 mM^−1 cm^−1 for pNP is used for calculating enzyme activity.
The presence of YebF appeared to greatly decrease the activity of the fusion proteins. […] The results are shown in FIG. 6, in which fractions C1-C10 correspond to the first peak (KrCUT) and fractions D9-D11 correspond to the second peak (YebF-KrCUT).

[6] = pH optimum in Universal Buffer; format: biochemical; details: pH 5-11, p-nitrophenyl butyrate
Experimental: as §1
Universal Buffer solutions were prepared according to Britton and Robinson (Surinenaite et al., 2002), having the selected pH value from 5-11. Activity of KrCUT and KrCUT189 were measured at the indicated pH, using p-nitrophenyl butyrate as substrate as described in Example 1, section 1.6). Curves were obtained by plotting values of activity against pH.

[7] = Potential inhibitors of cutinase activity; format: biochemical
Experimental: as §1
KrCUT cutinase activity was assayed as described in Example 1, section 1.6 in the presence of various chemicals using p-NP palmitate as substrate under standard assay conditions. […] Cu^2+ at 1.0 mM had little effect. The enzyme was not affected by the metal-chelating agent EDTA even at 10 mM. The anionic surfactant SDS was a strong inhibitor of cutinase even at 0.01% retaining only 28% activity. […] Dimethylsulfoxide (at 30%) and dimethylformide (at 5%) inhibited cutinase activity by about 70%.

B1: KrCUT: mature Kineococcus radiotolerans cutinase, amino acids 34-294 of SEQ ID NO: 1; SEQ ID NO: 6 (protein)
chain: ATCSDVDVVFARGTGETPGLGVVGGPFVRSLTGELSDRTVTSHAVDYAASSSQASAGPGATAMSAHVREVAAACPSTRFVLGGYSQGATVTDIALGIRTGTTTGTPVPAELAGRVAAVVVFGNPLGLSGRTIATASSTYGPKSKDYCNSSDSVCGSAPKTGTGGHLSYASNGSTTDGARFAAGLVRAAGTPTTPTPTPTPTPVPTTCVRDSTRDHVAADRAVSLYGRAYARGSRDSLGATSSYNVVSLQQVEGGWRLVTAC
modifications: Kineococcus radiotolerans; (1)..(261) KrCUT (lacking residues 1-33 of ssKrCUT)
Relative activity remaining (thermostability) ([1]; 50° C., 5 min, time 0 = 100%): 61 ± 5%
Relative activity remaining (thermostability) ([1]; 50° C., 10 min, time 0 = 100%): 31 ± 4%
Relative activity remaining (thermostability) ([1]; 50° C., 30 min, time 0 = 100%): 12 ± 2%
Relative activity remaining (thermostability) ([1]; 50° C., 60 min, time 0 = 100%): 6%
Relative activity remaining (thermostability) ([1]; 55° C., 5 min, time 0 = 100%): 45 ± 4%
Relative activity remaining (thermostability) ([1]; 55° C., 10 min, time 0 = 100%): 26 ± 4%
Relative activity remaining (thermostability) ([1]; 55° C., 30 min, time 0 = 100%): 4%
Relative activity remaining (thermostability) ([1]; 60° C., 5 min, time 0 = 100%): 34 ± 4%
Relative activity remaining (thermostability) ([1]; 60° C., 10 min, time 0 = 100%): 12 ± 2%
Relative activity remaining (thermostability) ([1]; 65° C., 5 min, time 0 = 100%): 19 ± 2%
binding to cellulose [2]: did not bind
binding to PHB [3]: binds efficiently
degradation of PHB [3]: did not degrade
adsorption equilibrium constant (K) ([3]; 25° C., pH 8.0): 0.12±0.03 ml/mg PHB
maximum amount of cutinase absorbed on the PHB granules (Emax) ([3]; 25° C., pH 8.0): 23.68 ± 0.03 µg/mg
Residual ochratoxin A (%) ([4]; 1 h): 63%
Residual ochratoxin A (%) ([4]; 4 h): 17%
Residual ochratoxin A (%) ([4]; 24 h): 7%
Ochratoxin A Degradation per U and h [4]: 0.02 µmol
specific activity [5]: 162 U/mg
pH optimum [6]: 8
effect of para-chloromercuribenzoate ([7]; 0.01 to 1 mM): no discernible effect
effect of 2-propanol ([7]; 2-propanol exceeding 15%): strongly reduces enzyme activity
effect of Cu2+ ([7]; Cu2+ 1.0 mM): little effect
effect of EDTA ([7]; EDTA 10 mM): not affected
enzyme inhibition by Fe2+ ([7]; Fe2+ 1 mM): 50%
enzyme inhibition by Mg2+ ([7]; Mg2+ 10 mM): 19%
activity retained with SDS ([7]; SDS 0.01%): 28%
effect of SDS ([7]; SDS 0.1%): complete loss of activity
effect of alcohols ([7]; concentration above 15-20%): strong inhibiting effect
inhibition by dimethylformide ([7]; dimethylformide 5%): about 70%
inhibition by dimethylsulfoxide ([7]; dimethylsulfoxide 30%): about 70%
loss of activity by zinc ion ([7]; zinc ion 0.1 mM): over 90%
effect of zinc ion on cutinase activity ([7]; zinc ion 1 mM): complete loss of activity

B2: Am-Kr: chimeric variant: AmCUT fused to the T/P-rich linker domain and polymer binding domain of KrCUT, SEQ ID NO: 27 (protein)
chain: ACSDLEIVFARGSGEAPGLGITGTPLVSDVKSALSSASVSSYAVDYAASYDQTSAGPGATDMSNHIKSTAAACPDTKFAIGGYSQGASVTDIAIGIRTYLGTGQTIPTELAPRVVAVIAFGNPLGLYGQTIKTASPTYGPKSLEFCNRGDNVCGGTGTGPGYGHLSYARDGSVDQAAAFIAKQYNASAGTPTTPTPTPTPTPVPTTCVRDSTRDHVAADRAVSLYGRAYARGSRDSLGATSSYNVVSLQQVEGGWRLVTAC
modifications: YebF carrier; Am-Kr variant
Residual ochratoxin A (%) ([4]; 1 h): 6%
Residual ochratoxin A (%) ([4]; 4 h): 0%
Residual ochratoxin A (%) ([4]; 24 h): 0%
Ochratoxin A degraded [4]: 100%
Ochratoxin A Degradation per U and h [4]: 3 µmol

B3: CfCUT: mature wild-type cutinase from Cellulomonas flavigena, SEQ ID NO: 28 (protein, listed as Cellulomonas flavigena)
chain: APACPDVELVFARGTGEAAGLGIVGRPLERALAAELPGRTVVATAVDYAASSSQASAGPGSGDMVAKVRSRAAACPGTQFVLGGYSQGATVTDLALGIRTGVTAGTALPEDLAARVAAVVVYGNPLGLTRRTIAQAAPAFATRTVEYCNAGDPVCEPGGGRFTAHITYATNGTVLEGARFAAARVTAPAPTPTPGPTGTPAPVPSAEPTPAPGDTCVTASSLQHVRDGRAYPLWMRTYARGSGDPLGVLSSRTVVSLQADGTDTWRKVAAC
Residual ochratoxin A (%) ([4]; 1 h): 11%
Residual ochratoxin A (%) ([4]; 4 h): 2%
Residual ochratoxin A (%) ([4]; 24 h): 0%
Ochratoxin A Degradation per U and h [4]: 3 µmol

B4: Cf-TP: chimeric variant: catalytic and polymer binding domains of CfCUT with T/P-rich linker domain of KrCUT, SEQ ID NO: 29 (protein)
chain: APACPDVELVFARGTGEAAGLGIVGRPLERALAAELPGRTVVATAVDYAASSSQASAGPGSGDMVAKVRSRAAACPGTQFVLGGYSQGATVTDLALGIRTGVTAGTALPEDLAARVAAVVVYGNPLGLTRRTIAQAAPAFATRTVEYCNAGDPVCEPGGGRFTAHITYATNGTVLEGARFAAARVTAAGTPTTPTPTPTPTPVPTTCVTASSLQHVRDGRAYPLWMRTYARGSGDPLGVLSSRTVVSLQADGTDTWRKVAAC
modifications: YebF carrier; Cf-TP variant
Relative activity remaining (thermostability) ([1]; 10 min): 43 ± 3%
Residual ochratoxin A (%) ([4]; 1 h): 5%
Residual ochratoxin A (%) ([4]; 4 h): 0%
Residual ochratoxin A (%) ([4]; 24 h): 0%
Ochratoxin A degraded [4]: 100%
Ochratoxin A Degradation per U and h [4]: 98 µmol
